T1: human TL1A (human, UniProt O95150 72-251)
T1 construct: Antigen in SPR and ELISA; Also used here for places that print only 'TL1A' and for endogenous TL1A in human whole blood; also called TNFSF15
T1 sequence (looked up): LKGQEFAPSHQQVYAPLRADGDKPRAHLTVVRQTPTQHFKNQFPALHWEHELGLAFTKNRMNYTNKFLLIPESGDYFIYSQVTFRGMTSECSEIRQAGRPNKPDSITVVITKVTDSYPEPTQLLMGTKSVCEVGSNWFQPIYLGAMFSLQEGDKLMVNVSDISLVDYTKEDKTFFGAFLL

T2: Cyno TL1A (cyno, UniProt G7PRK8 72-251)
T2 sequence: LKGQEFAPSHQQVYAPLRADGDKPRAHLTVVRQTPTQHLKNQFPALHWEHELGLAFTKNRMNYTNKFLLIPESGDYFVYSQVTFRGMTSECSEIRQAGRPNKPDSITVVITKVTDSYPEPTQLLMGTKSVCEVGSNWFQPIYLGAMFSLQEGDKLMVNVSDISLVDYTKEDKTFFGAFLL

B1: Antibody 51 (Fab format) (Fab, V domains shown)
VH: QVQLQESGPGLVRPSQTLSLTCTVSGFDIQDTYMHWVRQRPGRGLEWMGRIEPAGGHTKYNPSLKSRVTITRDTSKNQVSLRLSSVTAADTAVYYCVRSGGLPDAWGQGSLVTVSS
VL: DIQMTQSPSSLSASVGDRVTITCRASQGVEYMYWYQQKPGKAPKLLIYGASNLASGVPSRFSGSGSGTDFTFTISSLQPEDIATYYCQQWEGNPRTFGQGTKVEIK
notes: Backup lead, Fab format
B2: Antibody 27 (Fab format) (Fab, V domains shown)
VH: QVQLQESGPGLVRPSQTLSLTCTVSGFDIQDTYMHWVRQRPGRGLEWMGRIEPAGGHTKYNPSLKSRVTITRDTSKNQVSLRLSSVTAADTAVYYCVRSGGLPDAWGQGSLVTVSS
VL: DIQMTQSPSSLSASVGDRVTITCRASQGVRYMYWYQQKPGKAPKLLIYATSNLASGVPSRFSGSGSGTDFTFTISSLQPEDIATYYCQQWEGNPRTFGQGTKVEIK
notes: Backup lead, Fab format
B3: Antibody 3 (Fab format) (Fab, V domains shown)
VH: QVQLQESGPGLVRPSQTLSLTCTVSGFDIQDTYMHWVRQRPGRGLEWMGRIEPAGGHTKYNPSLKSRVTITRDTSKNQVSLRLSSVTAADTAVYYCVRSGGLPDAWGQGSLVTVSS
VL: DIQMTQSPSSLSASVGDRVTITCRASQGVRYMYWYQQKPGKAPKLLIYGASNLASGVPSRFSGSGSGTDFTFTISSLQPEDIATYYCQQWEGNPRTFGQGTKVEIK
notes: High priority lead, Fab format
B4: Antibody 34 (Fab format) (Fab, V domains shown)
VH: QVQLQESGPGLVRPSQTLSLTCTVSGLDPDDTYMHWVRQRPGRGLEWMGRIEPAGGHTKYNPSLKSRVTITRDTSKNQVSLRLSSVTAADTAVYYCVISGGLPDVWGQGSLVTVSS
VL: DIQMTQSPSSLSASVGDRVTITCRASQGIYYMYWYQQKPGKAPKLLIYATSNLASGVPSRFSGSGSGTDFTFTISSLQPEDIATYYCQQWEGNPRTFGQGTKVEIK
notes: Backup lead, Fab format
B5: Antibody 45 (Fab format) (Fab, V domains shown)
VH: QVQLQESGPGLVRPSQTLSLTCTVSGFDIEDTYMHWVRQRPGRGLEWMGRIEPASGHTKYNPSLKSRVTITRDTSKNQVSLRLSSVTAADTAVYYCAISGGVPDVWGQGSLVTVSS
VL: DIQMTQSPSSLSASVGDRVTITCRASSSVSYMYWYQQKPGKAPKLLIYATSNLASGVPSRFSGSGSGTDFTFTISSLQPEDIATYYCQQWEGNPRTFGQGTKVEIK
notes: Backup lead, Fab format
B6: Antibody 2 (Fab format) (Fab, V domains shown)
VH: QVQLQESGPGLVRPSQTLSLTCTVSGLDPDDTYMHWVRQRPGRGLEWMGRIEPAGGHTKYNPSLKSRVTITRDTSKNQVSLRLSSVTAADTAVYYCVISGGLPDVWGQGSLVTVSS
VL: DIQMTQSPSSLSASVGDRVTITCRASSSVSYMYWYQQKPGKAPKLLIYATSNLASGVPSRFSGSGSGTDFTFTISSLQPEDIATYYCQQWEGNPRTFGQGTKVEIK
notes: as for B3
B7: Antibody 1 (Fab format) (Fab, V domains shown)
VH: QVQLQESGPGLVRPSQTLSLTCTVSGFDIQDTYMHWVRQRPGRGLEWMGRIEPAGGHTKYNPSLKSRVTITRDTSKNQVSLRLSSVTAADTAVYYCASSGGMPDLWGQGSLVTVSS
VL: DIQMTQSPSSLSASVGDRVTITCRASQGVEYMYWYQQKPGKAPKLLIYGASNLASGVPSRFSGSGSGTDFTFTISSLQPEDIATYYCQQWEGNPRTFGQGTKVEIK
notes: High priority lead, Fab format; also called Lead #1
B8: Antibody 41 (Fab format) (Fab, V domains shown)
VH: QVQLQESGPGLVRPSQTLSLTCTVSGFDITDTYMHWVRQRPGRGLEWMGRIEPAGGHTKYNPSLKSRVTITRDTSKNQVSLRLSSVTAADTAVYYCVRSGGLPDVWGQGSLVTVSS
VL: DIQMTQSPSSLSASVGDRVTITCRASSSVSYMYWYQQKPGKAPKLLIYSASNLASGVPSRFSGSGSGTDFTFTISSLQPEDIATYYCQQWEGNPRTFGQGTKVEIK
notes: Backup lead, Fab format
B9: Antibody 42 (Fab format) (Fab, V domains shown)
VH: QVQLQESGPGLVRPSQTLSLTCTVSGFDITDTYMHWVRQRPGRGLEWMGRIEPAGGHTKYNPSLKSRVTITRDTSKNQVSLRLSSVTAADTAVYYCVRSGGLPDVWGQGSLVTVSS
VL: DIQMTQSPSSLSASVGDRVTITCRASQGVGYMYWYQQKPGKAPKLLIYGASNLASGVPSRFSGSGSGTDFTFTISSLQPEDIATYYCQQWEGNPRTFGQGTKVEIK
notes: Backup lead, Fab format
B10: Antibody 53 (Fab format) (Fab, V domains shown)
VH: QVQLQESGPGLVRPSQTLSLTCTVSGFDIQDTYMHWVRQRPGRGLEWMGRIEPASGHTKYNPSLKSRVTITRDTSKNQVSLRLSSVTAADTAVYYCARSGGMMDRWGQGSLVTVSS
VL: DIQMTQSPSSLSASVGDRVTITCRASQGVRYMYWYQQKPGKAPKLLIYGASNLASGVPSRFSGSGSGTDFTFTISSLQPEDIATYYCQQWEGNPRTFGQGTKVEIK
notes: Backup lead, Fab format
B11: Antibody 39 (Fab format) (Fab, V domains shown)
VH: QVQLQESGPGLVRPSQTLSLTCTVSGFDIQDTYMHWVRQRPGRGLEWMGRIEPAGGHTKYNPSLKSRVTITRDTSKNQVSLRLSSVTAADTAVYYCVRSGGLPDAWGQGSLVTVSS
VL: DIQMTQSPSSLSASVGDRVTITCRASSSVSYMYWYQQKPGKAPKLLIYATSNLASGVPSRFSGSGSGTDFTFTISSLQPEDIATYYCQQWEGNPRTFGQGTKVEIK
notes: Backup lead, Fab format
B12: Antibody 4 (Fab format) (Fab, V domains shown)
VH: QVQLQESGPGLVRPSQTLSLTCTVSGFDMADTYMHWVRQRPGRGLEWMGRIEPAGGHTKYNPSLKSRVTITRDTSKNQVSLRLSSVTAADTAVYYCVRSGGLPDMWGQGSLVTVSS
VL: DIQMTQSPSSLSASVGDRVTITCRASSSVSYMYWYQQKPGKAPKLLIYGASNLASGVPSRFSGSGSGTDFTFTISSLQPEDIATYYCQQWEGNPRTFGQGTKVEIK
notes: as for B3
B13: Antibody 30 (Fab format) (Fab, V domains shown)
VH: QVQLQESGPGLVRPSQTLSLTCTVSGFDIQDTYMHWVRQRPGRGLEWMGRIEPAGGHTKYNPSLKSRVTITRDTSKNQVSLRLSSVTAADTAVYYCVRSGGLPDAWGQGSLVTVSS
VL: DIQMTQSPSSLSASVGDRVTITCRASSSVSYMYWYQQKPGKAPKLLIYSASNLASGVPSRFSGSGSGTDFTFTISSLQPEDIATYYCQQWEGNPRTFGQGTKVEIK
notes: Backup lead, Fab format
B14: Antibody 33 (Fab format) (Fab, V domains shown)
VH: QVQLQESGPGLVRPSQTLSLTCTVSGFDIQDTYMHWVRQRPGRGLEWMGRIEPAGGHTKYNPSLKSRVTITRDTSKNQVSLRLSSVTAADTAVYYCVRSGGLPDAWGQGSLVTVSS
VL: DIQMTQSPSSLSASVGDRVTITCRASQGVEYMYWYQQKPGKAPKLLIYATSNLASGVPSRFSGSGSGTDFTFTISSLQPEDIATYYCQQWEGNPRTFGQGTKVEIK
notes: Backup lead, Fab format
B15: Antibody 24 (Fab format) (Fab, V domains shown)
VH: QVQLQESGPGLVRPSQTLSLTCTVSGFDIQDTYMHWVRQRPGRGLEWMGRIEPAGGHTKYNPSLKSRVTITRDTSKNQVSLRLSSVTAADTAVYYCVRSGGLPDAWGQGSLVTVSS
VL: DIQMTQSPSSLSASVGDRVTITCRASQGVGYMYWYQQKPGKAPKLLIYATSNLASGVPSRFSGSGSGTDFTFTISSLQPEDIATYYCQQWEGNPRTFGQGTKVEIK
notes: Backup lead, Fab format

Tests used:
human TL1A [1] = target: T1, human TL1A; assay: SPR, Fab format
human TL1A [2] = target: T1, human TL1A; assay: SPR, Fab lysate, average
Cyno TL1A = target: T2, Cyno TL1A; assay: SPR, Fab format, average
human TL1A [3] = target: T1, human TL1A; assay: SPR, Fab format, average

Binder	binding result (human TL1A [1])	Kd (human TL1A [2]) [nM]	Kd (Cyno TL1A) [nM]	Kd (human TL1A [3]) [nM]
B1	binds			
B2	binds			
B3		0.31	0.62	0.31
B4	binds			
B5	binds			
B6		0.2	0.94	0.2
B7		0.17	0.17	0.17
B8	binds			
B9	binds			
B10	binds			
B11	binds			
B12		0.33	0.16	0.33
B13	binds			
B14	binds			
B15	binds			

Source: patent publication US20250109209A1 (ABSCI, published 2025)
